{
  "source": "patent US20250243262A1",
  "key": {"[1]": {"target": "rPcrV protein (recombinant Pseudomonas PcrV) (Pseudomonas aeruginosa)", "experiment": "SPR (Bio-Rad ProteOn XPR36); antibody captured by anti-human IgG on GLC chip, rPcrV injected"}, "[2]": {"target": "rPcrV protein (recombinant Pseudomonas PcrV) (Pseudomonas aeruginosa)", "experiment": "SPR (Bio-Rad ProteOn XPR36); antibody captured on GLC sensor chip with anti-human IgG, rPcrV injected at multiple concentrations"}, "[3]": {"target": "rPcrV protein (recombinant Pseudomonas PcrV) (Pseudomonas aeruginosa)", "experiment": "SPR (Bio-Rad ProteOn XPR36); antibody captured, rPcrV as analyte; table under the sensorgram"}},
  "data": [
    {"substance": "V2L2-MD (germlined lead optimized V2L2) (antibody)", "values": [
      {"measurement": "fold increase in Kd over V2L2-GL", "setting": "[1]", "value": "2 to 3", "unit": "fold"},
      {"measurement": "Kd", "setting": "[2]", "value": 0.0456, "unit": "nM"},
      {"measurement": "koff", "setting": "[2]", "value": "4.03e-05", "unit": "s⁻¹"},
      {"measurement": "kon", "setting": "[2]", "value": 884000, "unit": "M⁻¹ s⁻¹"},
      {"measurement": "Kd", "setting": "[3]", "value": 0.046, "unit": "nM"},
      {"measurement": "koff", "setting": "[3]", "value": "4.03e-05", "unit": "s⁻¹"},
      {"measurement": "kon", "setting": "[3]", "value": 884000, "unit": "M⁻¹ s⁻¹"}
    ]}
  ]
}
